{
  "source": "the nanobody polyreactivity screen of Harvey et al. (2022)",
  "data": [
    {"assay": "yeast display, Sf9 membrane polyspecificity reagent, FACS + sequencing; frameworks hold sequencing errors", "how_it_was_run": "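Sorting gates, low and high (top ~1%), were placed on anti-HA fluorescence to track expression and on streptavidin fluorescence to track reagent binding. A clone's polyreactivity label is taken from the gate it came out of. The reagent was 10% biotinylated, detergent-solubilized Sf9 membrane, applied for 1 hour at 4 °C to galactose-induced yeast display cells.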", "values": [
      {"sequence": "QVQLVESGGGLVQAGGSLRLSCAASGRTFPYNAMGWYRQAPGKEMELVAVISSSGGSTYYADSVKGRFTISRDNAKNTVYLQMNSLKPEDTAVYYCNTRPYYYRRPGYRYSGYDYWGQGTQVTVSS", "polyreactivity (PSR sort gate)": "high polyreactivity"},
      {"sequence": "QVQLVESGGGLVQAGGSLRLSCAASGRTFPYYAMGWYRQAPGKERELVAAISSSGGSTYYADSVKGRFTISRDNAKYTVYLQMNSLKPEDTAVYYCAAVYQFIKWGDRYEYWGQGTQVTVSS", "polyreactivity (PSR sort gate)": "high polyreactivity"},
      {"sequence": "QVQLVESGGGLVQAGGSLRLSCAASGRTFPYYAMGWYRQAPGKERELVAAITSGGSTYYADSVKGRFTISRDNAKNTVYLQMNSLKPEDTAVYYCNALLGYYRWRRPVDYSYGSWGQGTQVTVSS", "polyreactivity (PSR sort gate)": "high polyreactivity"},
      {"sequence": "QVQLVESGGGLVQAGGSLRLSCAASGRTFPYYAMGWYRQATGKERELVARIRSDGSTNYADSVKGRFTISRDNANNTVYLQMNSLKPEDTAVYYCAGKPYPSLFFHYGYWGQCTQVTVSS", "polyreactivity (PSR sort gate)": "low polyreactivity"},
      {"sequence": "QVQLVESGGGLVQAGGSLRLSCAASGRTFPYYTMGWYREAPGKERELVAAIDGSGDNTYYADSVKGRFTISRDNAKNTLYLHMNSLKPEHTAVYYCTADTGLGTRDFEKRDYWGQGTQVTVSS", "polyreactivity (PSR sort gate)": "low polyreactivity"},
      {"sequence": "QVQLVESGGGLVQAGGSLRLSCAASGRTFPYYTMGWYRQAPGKERELVAAIDGSGDNTYYADSVKGRFTISRDYAKNTVYLQMNSLKPEDTAVYYCTAEQWGSLDYWGQGTQVTVSA", "polyreactivity (PSR sort gate)": "low polyreactivity"},
      {"sequence": "QVQLVESGGGLVQAGGSLRLSCAASGRTFPYYTMGWYRQAPGKERELVAAITSGGSTHYADSVKGRFTISRDNAKNTVYLQMNSLKPEDTAVYYCAADLFYHSYGYEYWGQGTQVTVSS", "polyreactivity (PSR sort gate)": "low polyreactivity"},
      {"sequence": "QVQLVESGGGLVQAGGSLRLSCAASGRTFPYYVMGWYRQAPGKERELVAAINSGGRTNYADSVKGRFTISRDNAKNTVYLQMNSLKPEETAVYYCTKRGHPARLGYYYWGQGTQVTGSS", "polyreactivity (PSR sort gate)": "low polyreactivity"},
      {"sequence": "QVQLVESGGGLVQAGGSLRLSCAASGRTFQDNAMVWYRQAPGKEREFVAAINNSGGNTYYADSVKGRFTISRDNAKNTVYLQMNSLKPEDTAVYYCNARHTWHQTYDYWGQGTQVTVSS", "polyreactivity (PSR sort gate)": "low polyreactivity"},
      {"sequence": "QVQLVESGGGLVQAGGSLRLSCAASGRTFQFYTMGWYRQAPGKERELVAVITVSSAATFYADTVKGRFTISRDNAKNTVSLQMNSLKPEDTAVYYCAAGLVLIVGMDSWGQGTQVTVSS", "polyreactivity (PSR sort gate)": "low polyreactivity"},
      {"sequence": "QVQLVESGGGLVQAGGSLRLSCAASGRTFQINAMGWYRQAPGKERELVAAITWSGGSTYYADSVKGRFTISRDNAKNTVYLQMNSLKPEDTAVYYCNKRYRAYATLNLIAGYNYWGQGTQVTVSS", "polyreactivity (PSR sort gate)": "low polyreactivity"},
      {"sequence": "QVQLVESGGGLVQAGGSLRLSCAASGRTFQNYAMGWYRQAPGKERELVADITSGGSTYADSVKGRFTISRDNAKNTVYLQMNSLKPEDTAVYYCNADRTYPEPAEYYYWGQGTQVTVSS", "polyreactivity (PSR sort gate)": "low polyreactivity"},
      {"sequence": "QVQLVESGGGLVQAGGSLRLSCAASGRTFQPYAMGWYRQAPGKERELVASISRSGGRTYYADSVKGRFTISRDNAKNTVYLQMNSLKPEDTAVYYCAADIPYTRSIKYYYWGQGTQVTVSS", "polyreactivity (PSR sort gate)": "high polyreactivity"},
      {"sequence": "QVQLVESGGGLVQAGGSLRLSCAASGRTFQRYAMGWYRQAPGKERELVAAISRGGITYYADSVKGRFTISRDNAKNTVYLQMNSLKPEDTAVYYCAALYRYYHESSPFDYWGQGTQVTVSS", "polyreactivity (PSR sort gate)": "high polyreactivity"},
      {"sequence": "QVQLVESGGGLVQAGGSLRLSCAASGRTFQRYAMVWYRQAPGKERELVPAITSRGGSTYYSDSVKGRFTISRDNAKNTVYLQMNSLKPEDTAVYYCNARSRRTLSEPQSEMDYWGQGTQVTVSS", "polyreactivity (PSR sort gate)": "high polyreactivity"},
      {"sequence": "QVQLVESGGGLVQAGGSLRLSCAASGRTFQWYTMGWYRQAPGKERELVAAISLSGTSTYYADSVKGRFTISRDNAKNTVYLQMNSLNPEDTAVYYCAAEDIGRYYRLDYWGQGTQVTVSS", "polyreactivity (PSR sort gate)": "low polyreactivity"},
      {"sequence": "QVQLVESGGGLVQAGGSLRLSCAASGRTFQYNAMGWYRQAPGKEREFVAGITSIGGRTYYADSVKGRFTISRDNAKNTVYLQMNSLKPEETAVYYCAAVRGLAVGYDYWGQGTQVTVSS", "polyreactivity (PSR sort gate)": "high polyreactivity"},
      {"sequence": "QVQLVESGGGLVQAGGSLRLSCAASGRTFQYYAMGWYRQAPGKERELVAAISSGGSTYYADSVKGRFTISRDNAKNTVYLQMNSLKPEDTAVYYCTARWGYRRGYWGQGTQVTVSS", "polyreactivity (PSR sort gate)": "high polyreactivity"},
      {"sequence": "QVQLVESGGGLVQAGGSLRLSCAASGRTFQYYAVGWYRQAPGKERELVAAITSGGSTYYADSVKGRFTISRDNAKNTVYLQMNSLKPEDTAVYYCAAKRNVQLGYTVQSLYDYWGLGTQVTVSS", "polyreactivity (PSR sort gate)": "low polyreactivity"},
      {"sequence": "QVQLVESGGGLVQAGGSLRLSCAASGRTFRAYAMGWYRQAPGKERELVAAITASGTSTYYADSVKGRFTISRDNAKNTVYLQMNSLKPEDTAVYYCARGSWRHFRLYGFDYWGQGTQVTVSS", "polyreactivity (PSR sort gate)": "low polyreactivity"},
      {"sequence": "QVQLVESGGGLVQAGGSLRLSCAASGRTFRENAMGWYRQAPGKERELVAAISWRAGSTYYADSVKGRFTISRDNAKNTVYLQMNSLKPEDTAVYYCAAKYTVSFYLWGTFNYWGQGTQVTVSS", "polyreactivity (PSR sort gate)": "high polyreactivity"},
      {"sequence": "QVQLVESGGGLVQAGGSLRLSCAASGRTFRFTAMGWYRQAPGKERELVAAISFRGGSTYYADSVKGRFTISRDNAKNTVYLQMNSLKPEDTAVYYCAARARTGTYRDMYYWGQGTQVTVSS", "polyreactivity (PSR sort gate)": "high polyreactivity"},
      {"sequence": "QVQLVESGGGLVQAGGSLRLSCAASGRTFRFYAMGWYRQAPGKERELVAAISSGGSTYYADSVKGRFTISRDNAKNTVYLQLNSLKAEDTAVYYCAVKQRDKFAGGRNDYWGQGTQVTVSS", "polyreactivity (PSR sort gate)": "high polyreactivity"},
      {"sequence": "QVQLVESGGGLVQAGGSLRLSCAASGRTFRFYAMGWYRQAPGKERELVAAISYSGGSTYYADSVKGRFTISRDNAKNTVYLQMNSLKPEDTAVYYCNARYRLGSPVGYNYYTGYDYWGQGTQVTVSS", "polyreactivity (PSR sort gate)": "high polyreactivity"},
      {"sequence": "QVQLVESGGGLVQAGGSLRLSCAASGRTFRFYAMGWYRQAPGKERELVASISSSGGSTYYADSVKGRFTISRDNAKNTVYLQMNSLKPEDTAVYYCNADVTNWEDDYYYWGQGTQVTVSS", "polyreactivity (PSR sort gate)": "high polyreactivity"},
      {"sequence": "QVQLVESGGGLVQAGGSLRLSCAASGRTFRGNAMGWYRQAPGKERELVAAGGSTYYADSVKGRFTISRDNAKNTVYLQINSLKPEDTAVYYCAAALGFSRYSWFCYGYWGQGTQVTGSS", "polyreactivity (PSR sort gate)": "low polyreactivity"},
      {"sequence": "QVQLVESGGGLVQAGGSLRLSCAASGRTFRGNAMGWYRQAPGKERELVAAISWRGTSTYYADSVKGRFTISRDNAKNTVYLQMNSLKPEDTAVYYCNTQRQLGERFYDRSRQGDYWGQGTQVTVSS", "polyreactivity (PSR sort gate)": "high polyreactivity"},
      {"sequence": "QVQLVESGGGLVQAGGSLRLSCAASGRTFRGNAMGWYRQAPGKESELVAVITASGSTTYADSVKGRFTISRDNAKNTVYLQMNSLKPEDTAVYYCAKYVPWYTLWLGGTDRDYWGQGTQVTVSS", "polyreactivity (PSR sort gate)": "low polyreactivity"},
      {"sequence": "QVQLVESGGGLVQAGGSLRLSCAASGRTFRGYAMGWYRQAPGKERELVAAISSSGGRTYYADSVKGRFTISRDNAKNTVYLQMNSLKPEDTAVYYCAAAVTLSPAQYGYWGQGTQVTVSS", "polyreactivity (PSR sort gate)": "high polyreactivity"},
      {"sequence": "QVQLVESGGGLVQAGGSLRLSCAASGRTFRGYAMGWYRQAPGKERELVAAITSGGSTNYADSVKGRFTISRDHAKNSVYLQMNSLKPEDTAVDYCNRDTSKYGLWRYIYDYWGQGTQVTVSS", "polyreactivity (PSR sort gate)": "low polyreactivity"}
    ]}
  ]
}
